Measured values as given in article PMC4465127 (2015).

Molecular target: T1, LIN-3 EGF domain EGF (Caenorhabditis elegans, UniProt Q03345)
T1 chain: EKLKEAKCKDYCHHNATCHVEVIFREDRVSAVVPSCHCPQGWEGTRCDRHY

- Kd: ~3000 nM
B1: sLET-23 ECD (protein)
chain: FGNSNAQLWKRCVSPQDCLCSGTTNGISRYGTGNILEDLETMYRGCRRVYGNLEITWIEANEIKKWRESTNSTVDPKNEDSPLKSINFFDNLEEIRGSLIIYRANIQKISFPRLRVIYGDEVFHDNALYIHKNDKVHEVVMRELRVIRNGSVTIQDNPKMCYIGDKIDWKELLYDPDVQKVETTNSHQHCYQNGKSMAKCHESCNDKCWGSGDNDCQRVYRSVCPKSCSQCFYSNSTSSYECCDSACLGGCTGHGPKNCIACSKYELDGICIETCPSRKIFNHKTGRLVFNPDGRYQNGNHCVKECPPELLIENDVCVRHCSDGHHYDATKDVRECEKCRSSSCPKICTVDGHLTNETLKNLEGCEQIDGHLIIEHAFTYEQLKVLETVKIVSEYITIVQQNFYDLKFLKNLQIIEGRKLHNVRWALAIYQCDDLEELSLNSLKLIKTGAVLIMKNHRLCYVSKIDWSSIITSKGKDNKPSLAIAENRDSKLCETEQRVCDKNCNKRGCWGKEPEDCLECKTWKSVGTCVEKCDTKGFLRNQTSMKCERCSPECETCNGLGELDCLTCRHKTLYNSDFGNRMECVHDCPVSHFPTQKNVCEKCHPTCYDNGCTGPDSNLGYGGCKQCKYAVKYENDTIFCLQSSGMNNVCVENDLPNYYISTYDTEGVIETHCEKCSISCKTCSSAGRNVVQNKCVCKHVEYQPNPSERICMDQCPVNSFMVPDTNNTVCKKCHHECDQNYHCANGQSTGCQKCKNFTVFKGDIAQCVSECPKNLPFSNPANGECLDYDIASRQRKTR
